Tests used:
[1] = target: reduced and carboxymethylated (S54G, P55N)-RNase T1 (UniProt P00651)
[2] = target: T1, reduced and carboxymethylated (S54G, P55N)-RNase T1, P00651
T1 chain: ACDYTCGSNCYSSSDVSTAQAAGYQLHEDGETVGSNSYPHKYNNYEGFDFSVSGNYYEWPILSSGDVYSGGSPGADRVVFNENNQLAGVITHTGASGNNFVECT

hFKBP12
Specificity constant kcat/KM (RCM-T1 refolding assay) [1]: 14000 M⁻¹ s⁻¹

B1: hFKBP12-IF5 (protein)
chain: GVQVETISPGDGRTFPKRGQTCVVHYTGMLEDGKKFDSSRDRNKPFKFMLGKQEVIRGWEEGVAQMSVGQRAKLTISPDYAYGMPNPELVISVPREEFTKAGLEPQEGLYVMTDSGIAKIVSVGESEVSLDFNHPLAGKTLVFDVELLKLEHHHHHH
Specificity constant kcat/KM (RCM-T1 refolding assay) [2]: 660000 M⁻¹ s⁻¹

B2: hFKBP12-IF1 (C22A) (protein)
chain: GVQVETISPGDGRTFPKRGQTAVVHYTGMLEDGKKFDSSRDRNKPFKFMLGKQEVIRGWEEGVAQMSVGQRAKLTISPDYAYGQYDENLVQRVPKDVFMGVDELQVGMRFLAETDQGPVPVEITAVEDDHVVVDGNHMLAGQNLVFDVELLKLEHHHHHH
Specificity constant kcat/KM (RCM-T1 refolding assay) [2]: 2.5e+06 M⁻¹ s⁻¹
concentration sufficient to double the folding rate of RCM-T1 [2]: Less than 1 nM FKBP12-IF1 are sufficient to double the folding rate of RCM-T1
specificity constant [2]: higher than 2.5×10^6 M^-1s^-1

B3: SlyD* (SlyD 1-165) (protein)
chain: MKVAKDLVVSLAYQVRTEDGVLVDESPVSAPLDYLHGHGSLISGLETALEGHEVGDKFDVAVGANDAYGQYDENLVQRVPKDVFMGVDELQVGMRFLAETDQGPVPVEITAVEDDHVVVDGNHMLAGQNLKFNVEVVAIREATEEELAHGHVHGAHDHHHDHDHDHHHHHH
Specificity constant kcat/KM (RCM-T1 refolding assay) [2]: 680000 M⁻¹ s⁻¹
concentration at which refolding of RCM-T1 is twofold accelerated [2]: In the presence of as low as 2 nM SlyD* refolding of RCM-T1 is already twofold accelerated

B4: SlpA (protein)
chain: SESVQSNSAVLVHFTLKLDDGTTAESTRNNGKPALFRLGDASLSEGLEQHLLGLKVGDKTTFSLEPDAAFGVPSPDLIQYFSRREFMDAGEPEIGAIMLFTAMDGSEMPGVIREINGDSITVDFNHPLAGQTVHFDIEVLEIDPALEAHHHHHH
Specificity constant kcat/KM (RCM-T1 refolding assay) [2]: < 1000 M⁻¹ s⁻¹

B5: TcFKBP18 (protein)
chain: MKVEAGDYVLFHYVGRFEDGEVFDTSYEEIARENGILVEEREYGPMWVRIGVGEIIPGLDEAIIGMEAGEKKTVTVPPEKAYGMPNPELVISVPREEFTKAGLEPQEGLYVMTDSGIAKIVSVGESEVSLDFNHPLAGKTLVFEVEVIEVKKAEEDSEA
Specificity constant kcat/KM (RCM-T1 refolding assay) [2]: 600000 M⁻¹ s⁻¹

B6: SlyD* ΔIF loop (protein)
chain: MKVAKDLVVSLAYQVRTEDGVLVDESPVSAPLDYLHGHGSLISGLETALEGHEVGDKFDVAVGANDAYGATGHPGIIPPHATLKFNVEVVAIREATEEELAHGHVHGAHDHHHDHDHDHHHHHH
Specificity constant kcat/KM (RCM-T1 refolding assay) [2]: 500 M⁻¹ s⁻¹
specificity constant relative to SlyD* [2]: amounts to only 0.07% of SlyD*

B7: hFKBP12-IF4 (protein)
chain: GVQVETISPGDGRTFPKRGQTAVVHYTGMLEDGKKFDSSRDRNKPFKFMLGKQEVIRGWEEGVAQMSVGQRAKLTISPDYAYGVPSPDLIQYFSRREFMDAGEPEIGAIMLFTAMDGSEMPGVIREINGDSITVDFNHPLAGQTLVFDVELLKLEHHHHHH
Specificity constant kcat/KM (RCM-T1 refolding assay) [2]: 850000 M⁻¹ s⁻¹
specificity constant (kcat/KM) [2]: 800.000 M⁻¹ s⁻¹

— patent publication US20090042251
